Experimental data as given in article PMC8220419.

How the values were obtained:
[1] = biological target: TGFBIp A546T (residues 45–632) (human) (UniProt Q15582); assay: SEC; calibrated SEC, Superdex 200 Increase 10/300 GL in PBS; TGFBIp at 7 μM
[2] = biological target: TGFBIp R124H (residues 45–632) (human) (UniProt Q15582); assay: as above
[3] = biological target: TGFBIp R124H (residues 45–632) (human) (UniProt Q15582); assay: in-line SEC-SAXS; in-line Superdex Increase 200 3.2/300 in 20 mM Tris, 150 mM NaCl, pH 7.4; ~0.5 to 1 mg/ml; rigid-body modeling
[4] = biological target: TGFBIp R555W (residues 45–632) (human) (UniProt Q15582); assay: SEC; calibrated SEC, Superdex 200 Increase 10/300 GL in PBS; TGFBIp at 7 μM
[5] = biological target: TGFBIp R555W (residues 45–632) (human) (UniProt Q15582); assay: in-line SEC-SAXS; in-line Superdex Increase 200 3.2/300 in 20 mM Tris, 150 mM NaCl, pH 7.4; ~0.5 to 1 mg/ml; rigid-body modeling
[6] = biological target: wildtype transforming growth factor-β–induced protein (TGFBIp), residues 45–632 (human) (UniProt Q15582); assay: SEC; calibrated SEC, Superdex 200 Increase 10/300 GL in PBS; TGFBIp at 7 μM
[7] = biological target: wildtype transforming growth factor-β–induced protein (TGFBIp), residues 45–632 (human) (UniProt Q15582); assay: in-line SEC-SAXS; in-line Superdex Increase 200 3.2/300 in 20 mM Tris, 150 mM NaCl, pH 7.4; ~0.5 to 1 mg/ml; rigid-body modeling

In the case of “TGFBIp A546T (residues 45–632) (from UniProt Q15582 45-632) (domain or fragment)”, the stoichiometry N [1] is reported as 2.
With “TGFBIp R124H (residues 45–632) (from UniProt Q15582 45-632) (domain or fragment)” the stoichiometry N [2] was 2 and the stoichiometry N [3] was 2.
“TGFBIp R555W (residues 45–632) (from UniProt Q15582 45-632) (domain or fragment)” was tested, and the stoichiometry N [4] was 2 and the stoichiometry N [5] was 2.
“wildtype transforming growth factor-β–induced protein (TGFBIp), residues 45–632 (from UniProt Q15582 45-632) (domain or fragment)” gave a stoichiometry N [6] of 2 and a stoichiometry N [7] of 2.
